In US20030232760A1, “Conjugates useful in the treatment of prostate cancer” (priority 2001, published 2003):
Where a SMILES comes first, the peptide text is derived from it. Primed or numbered codes have the meaning given here. [ ]: non-standard residue; d: D form. The star is where a group is joined. ξ: configuration not given here. Doxorubicin(3'-N) = COc1cccc2c1C(=O)c1c(O)c3c(c(O)c1C2=O)C[C@@](O)(C(=O)CO)C[C@@H]3O[C@H]1C[C@H](N*)[C@H](O)[C@H](C)O1; PEG(2) = polyethylene glycol-containing substituent with two ethyleneoxy subunits; Hyp = O=C(O)[C@@H]1C[C@@H](O)CN1; ξtBuAla = CC(C)(C)CC(N)C(=O)O; Chg = N[C@H](C(=O)O)C1CCCCC1; ξHyp = O=C(O)C1CC(O)CN1

Tests used:
DuPRO cells = experiment: In vitro cytotoxicity of peptidyl derivatives of doxorubicin, Alamar Blue assay, DuPRO; format: cell-based; settings: 72 HRS, read-out: DuPRO Cell Kill in 72 HRS EC 50
Method: (§1) The cytotoxicities of the cleaveable oligopeptide-doxorubicin conjugates, prepared as described in Examples 3 and 4, against a line of cells which is known to be killed by unmodified doxorubicin were assessed with an Alamar Blue assay. Specifically, cell cultures of LNCap prostate tumor cells (which express enzymatically active PSA) or DuPRO cells in 96 well plates was diluted with medium (Dulbeco's Minimum Essential Medium-α [MEM-α]) containing various concentrations of a given conjugate (final plate well volume of 200 μl). The cells were incubated for 3 days at 37° C., 20 μl of Alamar Blue is added to the assay well. The cells were further incubated and the assay plates were read on a EL-310 ELISA reader at the dual wavelengths of 570 and 600 nm at 4 and 7 hours after addition of Alamar Blue. Relative percentage viability at the various concentration of conjugate tested was then calculated versus control (no conjugate) cultures. If no salt is indicated, the free conjugate was tested.

[1] = test system: LNCap prostate tumor cells (which express enzymatically active PSA); experiment: In vitro cytotoxicity of peptidyl derivatives of doxorubicin, Alamar Blue assay, LNCaP; format: cell-based; settings: 72 HRS, read-out: LNCaP Cell Kill in 72 HRS EC 50
Method: as §1

[2] = biological target: T1, enzymatically active free PSA (Homo sapiens, UniProt P07288); experiment: Recognition of oligopeptide-doxorubicin conjugates by free PSA (HPLC cleavage assay); format: biochemical; settings: for Time to 50% Substrate Cleavage by PSA: conjugate added to PSA at molar ratio 100 to 1, PSA digestion buffer
T1 construct: required for 50% cleavage of the noted oligopeptides with enzymatically active free PSA
T1 sequence (P07288 25-261): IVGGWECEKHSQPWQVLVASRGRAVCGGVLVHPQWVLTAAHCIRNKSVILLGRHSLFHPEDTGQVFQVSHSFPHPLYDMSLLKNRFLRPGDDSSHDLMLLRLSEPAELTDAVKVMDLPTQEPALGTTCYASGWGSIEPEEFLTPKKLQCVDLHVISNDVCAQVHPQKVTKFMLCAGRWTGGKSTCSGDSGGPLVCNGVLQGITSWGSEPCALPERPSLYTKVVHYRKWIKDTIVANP
Method: The conjugates prepared as described in Examples 3-5 were individually dissolved in PSA digestion buffer (12 mM tris(hydroxymethyl)-aminomethane pH8.0, 25 mM NaCl, 0.5 mm CaCl2) and the solution added to PSA at a molar ration of 100 to 1. Alternatively, the PSA digestion buffer utilized is 50 mM tris(hydroxymethyl)-aminomethane pH7.4, 140 mM NaCl. The reaction is quenched after various reaction times by the addition of trifluoroacetic acid (TFA) to a final 1% (volume/volume). Alternatively the reaction is quenched with 10 mm ZnCl2. The quenched reaction was analyzed by HPLC on a reversed-phase C18 column using an aqueous 0.1% TFA/acetonitrile gradient. […] If no salt is indicated for the conjugate, the free conjugate was tested. The oligopeptide-cytotoxic agent conjugates described in Examples 4 and 5 were assessed for the amount of time (in minutes) required for 50% cleavage of the oligopeptide with enzymatically active free PSA and 50% cleavage occurred in less than 2 hours for those conjugates.

[3] = biological target: T1, enzymatically active free PSA; experiment: Recognition of oligopeptides by free PSA (HPLC cleavage assay); format: biochemical; settings: for Substrate cleavage by PSA at 3 HOURS: oligopeptide added to PSA at molar ratio 100 to 1; for Time to 50% Substrate Cleavage by PSA: oligopeptide added to PSA at molar ratio 100 to 1, PSA digestion buffer
Method: The oligopeptides prepared as described in Example 1 were individually dissolved in PSA digestion buffer (12 mM tris(hydroxymethyl)-aminomethane pH8.0, 25 mM NaCl, 0.5 mM CaCl2) and the solution added to PSA at a molar ration of 100 to 1. Alternatively, the PSA digestion buffer utilized is 50 mM tris(hydroxymethyl)-aminomethane pH7.4, 140 mM NaCl. The reaction is quenched after various reaction times by the addition of trifluoroacetic acid (TFA) to a final 1% (volume/volume). Alternatively the reaction is quenched with 10 mM ZnCl2. The quenched reaction was analyzed by HPLC on a reversed-phased C18 column using an aqueous 0.1% TFA/acetonitrile gradient. […] Oligopeptides containing free amine moieties (ie. comprising hArg, Orn, Lys and or 3PAL) were tested as TFA salts. All other oligopeptides were tested as neutral compounds.

## COc1cccc2c1C(=O)c1c(O)c3c(c(O)c1C2=O)C[C@@](O)(C(=O)CO)C[C@@H]3O[C@H]1C[C@H](NC(=O)C(CC(C)(C)C)NC(=O)[C@H](CO)NC(=O)[C@H](CCC(N)=O)NC(=O)[C@@H](NC(=O)[C@H](CO)NC(=O)[C@H](C)NC(=O)C2CC(O)CN2C(C)=O)C2CCCCC2)[C@H](O)[C@H](C)O1 (stereo partly shown) (Ac-[ξHyp]AS[Chg]QS[ξtBuAla]-{Doxorubicin(3'-N)})
DuPRO cells
  EC50: > 100 µM
[1]
  EC50: 100 µM
[2]
  Time to 50% Substrate Cleavage by PSA: 25 min

## COc1cccc2c1C(=O)c1c(O)c3c(c(O)c1C2=O)C[C@@](O)(C(=O)CO)C[C@@H]3O[C@H]1C[C@H](NC(=O)[C@H](CC(C)C)NC(=O)[C@H](CO)NC(=O)[C@H](CCC(N)=O)NC(=O)[C@@H](NC(=O)[C@H](CO)NC(=O)[C@H](C)NC(=O)[C@@H]2C[C@@H](O)CN2C(C)=O)C2CCCCC2)[C@H](O)[C@H](C)O1 [Ac-(4-trans-L-Hyp)ASChgQ-SL-DOX (3′), [N-Ac-(4-trans-L-Hyp)]-Ala-Ser-Chg-Gln-Ser-Leu-Dox] (Ac-[Hyp]AS[Chg]QSL-{Doxorubicin(3'-N)})
DuPRO cells
  EC50: 90 µM
[1]
  EC50: 4.5 µM
[2]
  Time to 50% Substrate Cleavage by PSA: 20 min

## Ac-(4-trans-L-Hyp)ASChgQ-SThi-DOX (3′)
[2]
  Solubility noted in the column Time to 50% Substrate Cleavage by PSA: INSOLUBLE

## Ac-(4-trans-L-Hyp)ChgQ-SSSL-acid
[3]
  Substrate cleavage by PSA at 3 HOURS: 3 HOURS = 0% n = 2

## Ac-(Dehydro-Pro)-ASChgQ-SL-acid
[3]
  Substrate cleavage by PSA at 3 HOURS: 3 HOURS = 28%

## Ac-PASChgQ-SL-acid (Ac-PAS[Chg]QSL-OH)
[3]
  Time to 50% Substrate Cleavage by PSA: 150 min

## Ac-PSSChgQ-SV-acid
[3]
  Time to 50% Substrate Cleavage by PSA: 120 min

## PEG(2)-(4-trans-L-Hyp)ASChgQ-SL-acid ({PEG(2)}-[Hyp]AS[Chg]QSL-OH)
[3]
  Substrate cleavage by PSA at 3 HOURS: 3 HOURS = 44%

## [N-Ac-(4-trans-L-Hyp)]-Ala-Ser-Chg-Gln-Ser-Leu-OH (Ac-[Hyp]AS[Chg]QSL-OH) [Ac-(4-trans-L-Hyp)ASChgQ-SL-acid]
[3]
  Time to 50% Substrate Cleavage by PSA: 75 min
